Experimental data reported in patent US20210270842A1 (DYAX, published 2021).

T1: intact high molecular weight kininogen (HMWK) (Homo sapiens, UniProt P01042 19-644)
T1 construct: also called intact HMWK; 1-chain HMWK
T1 sequence: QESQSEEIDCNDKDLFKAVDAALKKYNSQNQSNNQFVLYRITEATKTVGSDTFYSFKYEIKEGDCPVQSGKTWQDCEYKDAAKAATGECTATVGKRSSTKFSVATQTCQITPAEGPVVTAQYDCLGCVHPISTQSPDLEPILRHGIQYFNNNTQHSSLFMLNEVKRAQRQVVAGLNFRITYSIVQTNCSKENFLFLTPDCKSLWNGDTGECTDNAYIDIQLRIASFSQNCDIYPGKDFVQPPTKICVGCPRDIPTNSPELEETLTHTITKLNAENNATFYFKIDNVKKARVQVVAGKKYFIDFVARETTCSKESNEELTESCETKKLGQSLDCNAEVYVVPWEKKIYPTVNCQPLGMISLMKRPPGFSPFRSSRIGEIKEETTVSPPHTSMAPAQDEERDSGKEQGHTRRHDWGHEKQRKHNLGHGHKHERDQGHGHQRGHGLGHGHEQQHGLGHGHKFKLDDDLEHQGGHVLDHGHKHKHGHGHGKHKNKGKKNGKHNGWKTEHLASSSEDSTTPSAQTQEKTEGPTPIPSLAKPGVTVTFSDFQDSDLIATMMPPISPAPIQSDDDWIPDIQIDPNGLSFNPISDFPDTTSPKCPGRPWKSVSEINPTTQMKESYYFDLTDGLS

B1: 559B-M0044-E09 (Fab, V domains shown)
VH: EVQLLESGGGLVQPGGSLRLSCAASGFTFSQYSMGWVRQAPGKGLEWVSSIYSSGGSTQYADSVKGRFTISRDNSKNTLYLQMNSLRAEDTATYYCARTRRGWFGEDYYYYMDVWGKGTTVTVSS
VL: DIQMTQSPSSLSASVGDRITITCRASQGIRNDVGWYQQKPGKAPQRLIYAASSLQSGVPSRFSGSGSGTEFTLTISSLQPEDFATYYCLQHNSYPLTFGGGTKVEIK
B2: 559B-M0003-C08 (Fab, V domains shown)
VH: EVQLLESGGGLVQPGGSLRLSCAASGFTFSPYMMYWVRQAPGKGLEWVSSISPSGGKTWYADSVKGRFTISRDNSKNTLYLQMNSLRAEDTAVYYCARLGGSSSYYYYYYYGMDVWGQGTTVTVSS
VL: QSALTQSPSASGTPGQRVTISCSGSSSNIGGNTVNWYQQFPGTAPKLLIYSNNQRPSGVPDRFSGSKSGTSASLAISGLQSEDEAIYYCASWDDRLNGHWVFGGGTRLTVL
B3: 559B-M0038-F04 (Fab, V domains shown)
VH: EVQLLESGGGLVQPGGSLRLSCAASGFTFSKYEMMWVRQAPGKGLEWVSSISPSGGYTMYADSVKGRFTISRDNSKNTLYLQMNSLRAEDTAVYYCARHRSKWNDAPFDSWGQGTLVTVSS
VL: DIQMTQSPSSLSASVGDRVAITCRASQSIDTYLNWYQQKPGKAPKLLIYAASKLEDGVPSRFSGSGTGTDFTLTIRSLQPEDFASYFCQQSYSSPGITFGPGTKVEIK
B4: 559B-M0067-E02 (Fab, V domains shown)
VH: EVQLLESGGGLVQPGGSLRLSCAASGFTFSLYPMVWVRQAPGKGLEWVSSIYPSGGFTTYADSVKGRFTISRDNSKNTLYLQMNSLRAEDTAVYYCARSSRYYYYGMDVWGQGTTVTVSS
VL: QYELTQPPSMSGTPGQRVTISCSGSSSNIGSEYVYWFQQLPGTAPKLLIYRNDQRPSGVPDRFSGSKSGTSASLAISGLRSEDETDYYCSTWDDTLRTGVFGGGTKVTVL
B5: 559B-M0039-H06 (Fab, V domains shown)
VH: EVQLLESGGGLVQPGGSLRLSCAASGFTFSAYDMHWVRQAPGKGLEWVSSIWPSGGGTYYADSVKGRFTISRDNSKNTLYLQMNSLRAEDTAVYYCARGDYDYGDFTDAFDIWGQGTMVTVSS
VL: QSALTQPASVSGSPGQSITISCTGTSSDVGSYNLVSWYQQHPGKAPKLMIYEGSKRPSGVPDRFSGSKSGNTASLIISGLQAEDEADYYCCSYAGSYSYVFGTGTRVTVL
B6: 559B-M0044-C05 (Fab, V domains shown)
VH: EVQLLESGGGLVQPGGSLRLSCAASGFTFSIYQMYWVRQAPGKGLEWVSSIYSSGGRTFYADSVKGRFTISRDNSKNTLYLQMNSLRAEDTAVYYCATRGSWYVGGNEYFQHWGQGTLVTVSS
VL: QSVLTQSPSLSLSPGQTASIPCSGDTLGNKFVSWYQQKPGQSPVLVIYQDTKRPSGIPERFSGSNSGNTATLTITGTQAMDEADYYCQVWDSNSYAFGPGTKVTVL
B7: 559B-M0047-H01 (Fab, V domains shown)
VH: EVQLLESGGGLVQPGGSLRLSCAASGFTFSFYMMYWVRQAPGKGLEWVSSISSSGGFTRYADSVKGRFTISRDNSKNTLYLQMNSLRAEDTAVYYCARVRGLAVAAPDYWGQGTLVTVSS
VL: QSELTQPASVSGSPGQSITISCIGTSSDIGTYNYVSWYQQHPGKAPKLMIYDVNTRPSGVSDRFSGSKSGNTASLTISGLQAEDEADYYCSSYTTSVTWVFGGGTTLTVL
B8: 559B-M0019-E12 (Fab, V domains shown)
VH: EVQLLESGGGLVQPGGSLRLSCAASGFTFSGYNMYWVRQAPGKGLEWVSRISPSGGWTSYADSVKGRFTISRDNSKNTLYLQMNSLRAEDTAVYYCTRGQWMDWWGQGTMVTVSS
VL: DIQMTQSPSSLSASVGDRVIITCRASQNITGYLNWYQQKPGKAPNLLIYDASRMNTGVPSRFRGSGSGTDYILTIYKLEPEDIGTYFCQHTDDFSVTFGGGTKVDLK
B9: 559B-X0004-B05 (Fab, V domains shown)
VH: EVQLLESGGGLVQPGGSLRLSCAASGFTFHYRMMWVRQAPGKGLEWVSYISSSGGYTAYADSVKGRFTISRDNSKNTLYLQMNSLRAEDTAVYYCAAKRNRAFDIWGQGTMVTVSS
VL: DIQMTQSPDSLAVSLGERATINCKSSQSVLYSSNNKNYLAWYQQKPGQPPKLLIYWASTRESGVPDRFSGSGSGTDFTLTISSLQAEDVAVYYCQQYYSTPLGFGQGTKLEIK

target: T1, intact high molecular weight kininogen …; test: ELISA: Fab coated on 96-well plate, LowCross block, biotinylated antigen, streptavidin-HRP; signal over uncoated well
Experimental: Thirty-six purified Fab clones (see Table 2 below) were assessed for binding to cleaved HWMK, intact HMWK, and LWMK using the immunoassay described in Example 1. Specifically, each of the purified Fab clones was immobilized on 96-well assay plates at a concentration of […]) in a total volume of 100 μL in PBS and incubated overnight at 2-8° C. The assay plates were blocked using LowCross blocking buffer. Biotinylated intact HMWK, biotinylated cleaved HMWK or biotinylated LMWK ([…]) was added to each well in a total volume of 100 μL and incubated for 2 hours prior to washing with a wash buffer. HRP-labeled streptavidin was added to each well at a concentration of 100 ng/mL, and the signal was developed using Ultra TMB Substrate. The signal to noise ratio was calculated using the signal observed upon the addition of the biotinylated protein to an uncoated well. (FIG. 2, panels A and B). Based on the ELISA results, the antibodies can be divided among 5 categories (Table 2).

Binding result, binds:
B1, B2, B3, B4, B5, B6, B7, B8, B9
